Experimental data published in US20230151111A1.
Where “and” joins values, the source holds several entries; their conditions need not be identical. Equal values may be shown once.

Legend:
[1] = target: human NT5E-Biotin (human) (UniProt P21589); experiment: ELISA, NT5E-biotin on streptavidin; antibody 0.333 ug/mL diluted 1:3
[2] = target: human NT5E-Biotin (human) (UniProt P21589); experiment: ELISA, NT5E-biotin on streptavidin; antibody 0.333 ug/mL diluted 1:243
[3] = target: human NT5E-Biotin (human) (UniProt P21589); experiment: ELISA, NT5E-biotin on streptavidin; antibody 0.333 ug/mL diluted 1:9
[4] = target: human NT5E-Biotin (human) (UniProt P21589); experiment: ELISA, NT5E-biotin on streptavidin; antibody 0.333 ug/mL diluted 1:27
[5] = target: human NT5E-Biotin (human) (UniProt P21589); experiment: ELISA, NT5E-biotin on streptavidin
[6] = target: human NT5E(1-552)-his (human) (UniProt P21589); experiment: BLI (Fortebio), antibody on Protein A sensor, NT5E(1-552)-his 3.125-200 nM, 37 C
human NT5E(1-552)-his (human), sequence (P21589 27-552 limits assumed): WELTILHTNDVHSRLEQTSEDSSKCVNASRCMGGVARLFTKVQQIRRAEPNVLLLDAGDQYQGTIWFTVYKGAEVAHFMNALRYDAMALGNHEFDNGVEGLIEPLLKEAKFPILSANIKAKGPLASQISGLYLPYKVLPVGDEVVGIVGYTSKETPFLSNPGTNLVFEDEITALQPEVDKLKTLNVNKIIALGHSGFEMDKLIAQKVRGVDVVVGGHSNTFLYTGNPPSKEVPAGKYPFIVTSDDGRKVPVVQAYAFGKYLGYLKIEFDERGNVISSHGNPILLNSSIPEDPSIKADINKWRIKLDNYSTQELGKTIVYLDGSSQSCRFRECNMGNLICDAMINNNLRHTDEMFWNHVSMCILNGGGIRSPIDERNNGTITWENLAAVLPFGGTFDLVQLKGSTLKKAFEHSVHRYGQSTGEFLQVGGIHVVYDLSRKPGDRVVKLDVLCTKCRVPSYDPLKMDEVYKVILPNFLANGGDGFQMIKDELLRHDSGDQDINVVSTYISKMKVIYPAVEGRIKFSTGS

[7] = target: human NT5E-Biotin (human) (UniProt P21589); experiment: ELISA, NT5E-biotin on streptavidin; antibody 0.333 ug/mL diluted 1:729
[8] = target: human NT5E-Biotin (human) (UniProt P21589); experiment: ELISA, NT5E-biotin on streptavidin; antibody 0.333 ug/mL
[9] = target: human NT5E-Biotin (human) (UniProt P21589); experiment: ELISA, NT5E-biotin on streptavidin; antibody 0.333 ug/mL diluted 1:81
[10] = target: human PD-1-mFc-biotin (human) (UniProt Q15116); experiment: competitive ELISA, competitor coated PD-L1-mFc; antibody 5 ug/mL diluted 1:9
human PD-1-mFc-biotin (human), sequence (Q15116 other isoform, or with tags, fused parts or gaps limits assumed): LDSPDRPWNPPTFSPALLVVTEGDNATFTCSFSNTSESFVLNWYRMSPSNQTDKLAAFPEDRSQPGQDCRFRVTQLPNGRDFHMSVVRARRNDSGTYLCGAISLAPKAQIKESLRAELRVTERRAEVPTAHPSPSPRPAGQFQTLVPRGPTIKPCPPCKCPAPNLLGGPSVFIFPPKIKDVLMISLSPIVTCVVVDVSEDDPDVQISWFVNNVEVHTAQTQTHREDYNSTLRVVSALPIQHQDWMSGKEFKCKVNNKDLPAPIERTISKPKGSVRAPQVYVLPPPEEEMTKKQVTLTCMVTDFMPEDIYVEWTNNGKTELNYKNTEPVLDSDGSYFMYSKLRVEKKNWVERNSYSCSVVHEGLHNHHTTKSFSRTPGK

PD-1-mFc (human) [11] = target: PD-1-mFc (human) (UniProt Q15116); experiment: ELISA, PD-1-mFc coated; antibody 1 ug/mL diluted 1:9
PD-1-mFc (human), sequence (Q15116 other isoform, or with tags, fused parts or gaps limits assumed): as above

PD-1-mFc (human) [12] = target: PD-1-mFc (human) (UniProt Q15116); experiment: ELISA, PD-1-mFc coated; antibody 1 ug/mL diluted 1:3
[13] = target: human PD-1-mFc-biotin (human) (UniProt Q15116); experiment: competitive ELISA, blocking of PD-1-mFc-biotin binding to coated PD-L1-mFc
[14] = target: human PD-1-mFc-biotin (human) (UniProt Q15116); experiment: competitive ELISA, competitor coated PD-L1-mFc; antibody 5 ug/mL
PD-1-mFc (human) [15] = target: PD-1-mFc (human) (UniProt Q15116); experiment: ELISA, PD-1-mFc coated; antibody 1 ug/mL diluted 1:243
PD-1-mFc (human) [16] = target: PD-1-mFc (human) (UniProt Q15116); experiment: ELISA, PD-1-mFc coated; antibody 1 ug/mL diluted 1:27
[17] = target: human PD-1-mFc-biotin (human) (UniProt Q15116); experiment: competitive ELISA, competitor coated PD-L1-mFc; antibody 5 ug/mL diluted 1:729
[18] = target: human PD-1-mFc-biotin (human) (UniProt Q15116); experiment: competitive ELISA, competitor coated PD-L1-mFc; antibody 5 ug/mL diluted 1:243
[19] = target: human PD-1-mFc-biotin (human) (UniProt Q15116); experiment: competitive ELISA, competitor coated PD-L1-mFc; antibody 5 ug/mL diluted 1:81
PD-1-mFc (human) [20] = target: PD-1-mFc (human) (UniProt Q15116); experiment: ELISA, PD-1-mFc coated; antibody 1 ug/mL diluted 1:729
[21] = target: human PD-1-mFc-biotin (human) (UniProt Q15116); experiment: competitive ELISA, competitor coated PD-L1-mFc; antibody 5 ug/mL diluted 1:27
PD-1-mFc (human) [22] = target: PD-1-mFc (human) (UniProt Q15116); experiment: ELISA, PD-1-mFc coated; antibody 1 ug/mL
PD-1-mFc (human) [23] = target: PD-1-mFc (human) (UniProt Q15116); experiment: ELISA, PD-1-mFc coated; antibody 1 ug/mL diluted 1:81
[24] = target: human PD-1-mFc-biotin (human) (UniProt Q15116); experiment: competitive ELISA, competitor coated PD-L1-mFc; antibody 5 ug/mL diluted 1:3

human NT5E-Biotin (human), sequence (P21589 27-552 limits assumed, form in doubt): as the sequence (P21589 27-552 limits assumed) above

MEDI9447 (antibody)
OD450 [1]: 2.43 OD and 2.53 OD | OD450 [2]: 0.547 OD and 0.587 OD | OD450 [3]: 2.22 OD and 2.35 OD | OD450 [4]: 1.73 OD and 1.81 OD | EC50 [5]: 0.042 nM | Kd [6]: 0.104 nM | koff [6]: 2.44e-05 s⁻¹ | kon [6]: 234000 M⁻¹ s⁻¹ | OD450 [7]: 0.288 OD and 0.305 OD | OD450 [8]: 2.46 OD and 2.57 OD | OD450 [9]: 1.09 OD and 1.17 OD

nivolumab (antibody)
OD450 [10]: 0.107 OD and 0.1 OD | OD450 (PD-1-mFc (human) [11]): 2.52 OD and 2.57 OD | OD450 (PD-1-mFc (human) [12]): 2.44 OD | EC50 [13]: 1.7 nM | OD450 [14]: 0.057 OD | OD450 (PD-1-mFc (human) [15]): 0.98 OD | OD450 (PD-1-mFc (human) [16]): 2.2 OD and 2.22 OD | OD450 [17]: 1.35 OD and 1.28 OD | OD450 [18]: 1.39 OD and 1.21 OD | OD450 [19]: 1.24 OD and 1.15 OD | OD450 (PD-1-mFc (human) [20]): 0.521 OD and 0.498 OD | OD450 [21]: 1.01 OD and 0.875 OD | OD450 (PD-1-mFc (human) [22]): 2.39 OD and 2.47 OD | OD450 (PD-1-mFc (human) [23]): 1.71 OD | OD450 [24]: 0.075 OD and 0.076 OD
